Laboratory results: publication PMC3145792

Target: SECRET domain (smallpox virus-encoded chemokine receptor domain) of the vTNFR CrmD encoded by ectrom (ectromelia virus)
Experiment: crystal structure

With “chemokine domain of human CX3CL1 (residues 1-76) (from UniProt P78423 25-100) (domain or fragment)” the stoichiometry N was 1.
